What was measured:
[1] = Stability at high acetonitrile concentrations; assay type: physicochemical; conditions: 5 hours of incubation, 50% to 100% co-solvent, 20° C.; versus PaDa-I
Description: FIG. 2 Biochemical characteristics of the variants of the invention. A) Spectroscopic characteristics of the PaDa-I (thin line) and JaWa (thick line) mutants at rest. AU, arbitrary units. B) Thermostability analysis (T50) of the PaDa-I (black circles) and JaWa (white circles) mutants. The experiments were carried out using culture supernatants and each point represents the average value and standard deviation of three individual experiments. C) Stability of the PaDa-I (black bars) and JaWa (grey bars) mutants at high acetonitrile concentrations. The stabilities were determined after 5 hours of incubation of the enzyme in increasing concentrations of the co-solvent (from 50% to 100%) at 20° C. in 10 mM pH 7.0 potassium phosphate buffer. […] The error bars indicate standard deviations.

[2] = Naphthalene transformation reaction analysed by HPLC-PDA; assay type: biochemical
Description: A) Products formed after 15 minutes of reaction stopped with 20 μL of HCl 37% (PaDa-I, black bars; JaWa, grey bars). […] C) and D) Monitoring of the reaction for 270 minutes (without adding HCl) for the PaDa-I (C) and JaWa (D) mutants.
The reactions were analysed by means of chromatography in reverse phase (HPLC). The equipment is composed by a tertiary pump (Varian-Agilent Technologies, USA) coupled to an autosampler (Merck Millipore, MA, USA); an ACE C18 PFP column was used for separation (pentafluorophenyl, 15 cm×4.6 cm) at 45° C. and detection was performed using a photodiode detector (PDA) (Varian-Agilent Technologies, USA). The mobile phase selected was 70% methanol and 30% ddH2O (in both cases with 0.1% of acetic acid) at a flow rate of 0.8 mL/min. The reaction was quantified at 268 nm (based on standard HPLCs). […] For long reaction times, the conditions used were those described earlier but without stopping the reaction with HCl. A sample of 10 μL was injected and analysed at different reaction times (from 1 to 270 minutes).

[3] = 15 minutes of reaction stopped with HCl
[4] = 15 minutes of reaction stopped with HCl, 6.6 nM enzyme, 1 mM naphthalene, 1 mM H2O2

B1: JaWa: PaDa-I variant with added mutations G241D and R257K, SEQ ID NO: 24 (protein)
chain: MKYFPLFPTLVYAVGVVAFPDYASLAGLSQQELDAIIPTLEAREPGLPPGPLENSSAKLVNDEAHPWKPLRPGDIRGPCPGLNTLASHGYLPRNGVATPAQIINAVQEGFNFDNQAAIFATYAAHLVDGNLITDLLSIGRKTRLTGPDPPPPASVGGLNEHGTFEGDASMTRGDAFFGNNHDFNETLFEQLVDYSNRFGGGKYNLTVAGELRFKRIQDSIATNPNFSFVDFRFFTAYGETTFPANLFVDGRRDDGQLDMDAARSFFQFSRMPDDFFRAPSPRSDTGVEVVVQAHPMQPGKNVGKINSYTVDPTSSDFSTPCLMYEKFVNITVKSLYPNPTVQLRKALNTNLDFLFQGVAAGCTQVFPYGRD
stability in the presence of acetonitrile [1]: higher stability in the presence of acetonitrile
1,4-naphthoquinone (oxidation product) detected [2, 3]: without detectable traces of 1,4-naphthoquinone
increase in the production of 1-naphthol, more than PaDa-I [2, 3]: 156%
regioselectivity, 1-naphthol [2, 4]: 92%
regioselectivity, 2-naphthol [2, 4]: 8%
time at which formation of the epoxide intermediary reached its maximum ([2]; 270 minute reaction at pH 7.0): ~40 min
production of 1-naphthol ([2]; 270 minutes at pH 7.0 without stopping the reaction): 0.32 mM
total turnover numbers (TTN), 1-naphthol ([2]; calculated using the production value of 1-naphthol after 270 minutes): ~50,000 μmoles of product/μmoles of en
regioselectivity against 1-naphthol ([2]; long reaction times, 270 minutes at pH 7.0 without stopping the reaction): 97%
